# Earlier results, collected in patent US6200966A, “Compositions for inhibiting airway wall inflammation” (Amrad Operations Pty. Ltd., priority 1996, dated 2001).
# B1: PDGFBB: platelet-derived growth factor (protein, UniProt P01127 82-190, looked up)
# Platelet-derived growth …: SLGSLTIAEPAMIAECKTRTEVFEISRRLIDRTNANFLVWPPCVEVQRCSGCCNNRNVQCRPTQVQLRPVQVRKIEIVRKKPIFKKATVTLEDHLACKCETVAAARPVT
# Tested on: cultured airway smooth muscle
# Conditions: various species
molecule,measurement,value
B1,mitogenic activity on airway smooth muscle,most effective proliferative agents
